# Results published in patent publication US20220025021A1 (BETH ISRAEL DEACONESS MEDICAL CENTER, published 2022).
# Positions count from the first letter of the chain named.
# B1: MS-93 (antibody)
# VH: not shown
# VL: DIVLTQSPLSLSVTPGESASISCKSSHSLIHGDRNNYLAWYVQKPGRSPQLLIYLASSRASGVPDRFSGSGSDKDFTLKISRVETEDVGTYYCMQGRESPWTFGQGTKVDIKRTVAAPSVFIFPPSDEQLKSGTASVVCLLNNFYPREAKVQWKVDNALQSGNSQESVTEQDSKDSTYSLSSTLTLSKADYEKHKVYACEVTHQGLSSPVTKSFNRGEC
# B2: MS-106 (antibody)
# VH: not shown
# VL: B1 VL with L9H, S18P, D73G
# B3: MS-108 (antibody)
# VH: not shown
# VL: B1 VL with L9H, D73G, T85A
# B4: MS-107 (antibody)
# VH: not shown
# VL: B1 VL with L9H, S18P, T85A
# B5: MS-95 (antibody)
# VH: not shown
# VL: B1 VL with L9H, D73G
# B6: MS-104 (antibody)
# VH: not shown
# VL: B1 VL with D73G
# B7: MS-110 (antibody)
# VH: not shown
# VL: B1 VL with I2F, S18P, T85A
# B8: MS-99 (antibody)
# VH: not shown
# VL: B1 VL with I2F, T85A
# B9: MS-105 (antibody)
# VH: not shown
# VL: B1 VL with T85A
# B10: MS-100 (antibody)
# VH: not shown
# VL: B1 VL with I2F, L9H, S18P, D73G
# B11: MS-111 (antibody)
# VH: not shown
# VL: B1 VL with I2F, D73G, T85A
# B12: MS-109 (antibody)
# VH: not shown
# VL: B1 VL with I2F, S18P, D73G
# B13: MS-98 (antibody)
# VH: not shown
# VL: B1 VL with I2F, D73G
# B14: MS-96 (antibody)
# VH: not shown
# VL: B1 VL with L9H, T85A
# B15: MS-97 (antibody)
# VH: not shown
# VL: B1 VL with I2F, S18P
# B16: MS-94 (antibody)
# VH: not shown
# VL: B1 VL with L9H, S18P
# Assays:
# Assay in all cases: cell-based or functional assay
# [1] = biological target: HIV-1 pseudovirus 263-8 (envelope glycoprotein) (HIV-1)
# [2] = biological target: HIV-1 pseudovirus SC05.8C11.2344 (envelope glycoprotein) (HIV-1)
# [3] = biological target: HIV-1 pseudovirus X1193_c1 (envelope glycoprotein) (HIV-1)
# [4] = biological target: HIV-1 pseudovirus Ce1176_A3 (envelope glycoprotein) (HIV-1)
# [5] = biological target: HIV-1 pseudovirus AC10.0.29 (envelope glycoprotein) (HIV-1)
# [6] = biological target: HIV-1 pseudovirus 6952.v1.c20 (envelope glycoprotein) (HIV-1)
# [7] = biological target: HIV-1 envelope glycoprotein of pseudovirus SC422661.8 (HIV-1)
# [8] = biological target: HIV-1 envelope glycoprotein of pseudovirus RHPA4259.7 (HIV-1)
# [9] = biological target: HIV-1 envelope glycoprotein of pseudovirus DU172.17 (HIV-1)
# [10] = biological target: HIV-1 envelope glycoprotein of pseudovirus BB1012-11.TC21 (HIV-1)
# [11] = biological target: HIV-1 envelope glycoprotein of pseudovirus CNE52 (HIV-1)
# [12] = biological target: HIV-1 envelope glycoprotein of pseudovirus 0260.v5.c36 (HIV-1)
Binder,neutralization IC50 [1],neutralization IC80 [1],neutralization IC50 [2],neutralization IC80 [2],neutralization IC50 [3],neutralization IC80 [3],neutralization IC50 [4],neutralization IC80 [4],neutralization IC50 [5],neutralization IC80 [5],neutralization IC50 [6],neutralization IC80 [6],IC50 (neutralization in TZM.bl cells) [7],IC80 (neutralization in TZM.bl cells) [7],IC50 (neutralization in TZM.bl cells) [8],IC80 (neutralization in TZM.bl cells) [8],IC50 (neutralization in TZM.bl cells) [9],IC80 (neutralization in TZM.bl cells) [9],IC50 (neutralization in TZM.bl cells) [10],IC80 (neutralization in TZM.bl cells) [10],also measured
B1,0.018 µg/mL,0.065 µg/mL,0.749 µg/mL,2.48 µg/mL,0.088 µg/mL,0.543 µg/mL,0.239 µg/mL,5.33 µg/mL,0.058 µg/mL,0.301 µg/mL,0.259 µg/mL,4.31 µg/mL,–,–,–,–,–,–,–,–,–
B2,–,–,–,–,–,–,–,–,–,–,–,–,0.201 µg/mL,1.07 µg/mL,0.143 µg/mL,0.72 µg/mL,1.49 µg/mL,8.04 µg/mL,0.031 µg/mL,0.132 µg/mL,IC50 (neutralization in TZM.bl cells) [11]: 0.42 µg/mL; IC80 (neutralization in TZM.bl cells) [11]: 4.31 µg/mL; IC50 (neutralization in TZM.bl cells) [12]: 0.018 µg/mL; IC80 (neutralization in TZM.bl cells) [12]: 0.066 µg/mL
B3,–,–,–,–,–,–,–,–,–,–,–,–,0.148 µg/mL,1.25 µg/mL,0.178 µg/mL,1.1 µg/mL,1.71 µg/mL,13.6 µg/mL,0.027 µg/mL,0.11 µg/mL,IC50 (neutralization in TZM.bl cells) [11]: 0.265 µg/mL; IC80 (neutralization in TZM.bl cells) [11]: 3.5 µg/mL; IC50 (neutralization in TZM.bl cells) [12]: 0.028 µg/mL; IC80 (neutralization in TZM.bl cells) [12]: 0.088 µg/mL
B4,–,–,–,–,–,–,–,–,–,–,–,–,0.362 µg/mL,2.07 µg/mL,0.219 µg/mL,0.949 µg/mL,2.58 µg/mL,13.9 µg/mL,0.035 µg/mL,0.111 µg/mL,IC50 (neutralization in TZM.bl cells) [11]: 0.389 µg/mL; IC80 (neutralization in TZM.bl cells) [11]: 5.29 µg/mL; IC50 (neutralization in TZM.bl cells) [12]: 0.034 µg/mL; IC80 (neutralization in TZM.bl cells) [12]: 0.109 µg/mL
B5,0.013 µg/mL,0.047 µg/mL,0.702 µg/mL,1.79 µg/mL,0.111 µg/mL,0.467 µg/mL,0.203 µg/mL,5.38 µg/mL,0.076 µg/mL,0.27 µg/mL,0.229 µg/mL,6.26 µg/mL,–,–,–,–,–,–,–,–,–
B6,–,–,–,–,–,–,–,–,–,–,–,–,0.277 µg/mL,1.52 µg/mL,0.227 µg/mL,1.02 µg/mL,2.58 µg/mL,9.41 µg/mL,0.032 µg/mL,0.137 µg/mL,IC50 (neutralization in TZM.bl cells) [11]: 0.509 µg/mL; IC80 (neutralization in TZM.bl cells) [11]: 6.48 µg/mL; IC50 (neutralization in TZM.bl cells) [12]: 0.024 µg/mL; IC80 (neutralization in TZM.bl cells) [12]: 0.084 µg/mL
B7,–,–,–,–,–,–,–,–,–,–,–,–,0.243 µg/mL,1.19 µg/mL,0.18 µg/mL,0.817 µg/mL,0.847 µg/mL,7.3 µg/mL,0.033 µg/mL,0.104 µg/mL,IC50 (neutralization in TZM.bl cells) [11]: 0.21 µg/mL; IC80 (neutralization in TZM.bl cells) [11]: 1.31 µg/mL; IC50 (neutralization in TZM.bl cells) [12]: 0.026 µg/mL; IC80 (neutralization in TZM.bl cells) [12]: 0.088 µg/mL
B8,0.011 µg/mL,0.041 µg/mL,0.759 µg/mL,2.49 µg/mL,0.13 µg/mL,0.57 µg/mL,0.074 µg/mL,1.25 µg/mL,0.072 µg/mL,0.328 µg/mL,0.217 µg/mL,1.99 µg/mL,–,–,–,–,–,–,–,–,–
B9,–,–,–,–,–,–,–,–,–,–,–,–,0.44 µg/mL,3.51 µg/mL,0.27 µg/mL,1.25 µg/mL,3.06 µg/mL,11.5 µg/mL,0.038 µg/mL,0.124 µg/mL,IC50 (neutralization in TZM.bl cells) [11]: 0.441 µg/mL; IC80 (neutralization in TZM.bl cells) [11]: 5.04 µg/mL; IC50 (neutralization in TZM.bl cells) [12]: 0.032 µg/mL; IC80 (neutralization in TZM.bl cells) [12]: 0.11 µg/mL
B10,0.006 µg/mL,0.026 µg/mL,0.531 µg/mL,1.77 µg/mL,0.058 µg/mL,0.358 µg/mL,0.048 µg/mL,0.905 µg/mL,0.042 µg/mL,0.211 µg/mL,0.182 µg/mL,1.68 µg/mL,–,–,–,–,–,–,–,–,–
B11,–,–,–,–,–,–,–,–,–,–,–,–,0.285 µg/mL,1.03 µg/mL,0.178 µg/mL,0.802 µg/mL,1.76 µg/mL,6.27 µg/mL,0.029 µg/mL,0.093 µg/mL,IC50 (neutralization in TZM.bl cells) [11]: 0.22 µg/mL; IC80 (neutralization in TZM.bl cells) [11]: 1.31 µg/mL; IC50 (neutralization in TZM.bl cells) [12]: 0.024 µg/mL; IC80 (neutralization in TZM.bl cells) [12]: 0.066 µg/mL
B12,–,–,–,–,–,–,–,–,–,–,–,–,0.233 µg/mL,1.75 µg/mL,0.182 µg/mL,0.794 µg/mL,1.14 µg/mL,8.76 µg/mL,0.021 µg/mL,0.087 µg/mL,IC50 (neutralization in TZM.bl cells) [11]: 0.206 µg/mL; IC80 (neutralization in TZM.bl cells) [11]: 1.95 µg/mL; IC50 (neutralization in TZM.bl cells) [12]: 0.027 µg/mL; IC80 (neutralization in TZM.bl cells) [12]: 0.089 µg/mL
B13,0.009 µg/mL,0.033 µg/mL,0.59 µg/mL,1.9 µg/mL,0.088 µg/mL,0.369 µg/mL,0.102 µg/mL,2.36 µg/mL,0.067 µg/mL,0.245 µg/mL,0.109 µg/mL,1.6 µg/mL,–,–,–,–,–,–,–,–,–
B14,0.018 µg/mL,0.064 µg/mL,1.07 µg/mL,3.4 µg/mL,0.113 µg/mL,0.677 µg/mL,0.248 µg/mL,5.85 µg/mL,0.064 µg/mL,0.253 µg/mL,0.558 µg/mL,8.56 µg/mL,–,–,–,–,–,–,–,–,–
B15,0.015 µg/mL,0.052 µg/mL,1.02 µg/mL,2.63 µg/mL,0.101 µg/mL,0.588 µg/mL,0.125 µg/mL,1.59 µg/mL,0.057 µg/mL,0.282 µg/mL,0.147 µg/mL,0.917 µg/mL,–,–,–,–,–,–,–,–,–
B16,0.014 µg/mL,0.047 µg/mL,0.739 µg/mL,2.5 µg/mL,0.123 µg/mL,0.548 µg/mL,0.371 µg/mL,11.7 µg/mL,0.079 µg/mL,0.299 µg/mL,0.238 µg/mL,3.67 µg/mL,–,–,–,–,–,–,–,–,–
